This is an account of results in paper PMC5010584, “Comparison of Ga-68-Labeled Fusarinine C-Based Multivalent RGD Conjugates and [^68Ga]NODAGA-RGD—In Vivo Imaging Studies in Human Xenograft Tumors” (Molecular Imaging and Biology, 2016).

Data set [1] is described as follows: Distribution coefficient (logD), octanol/PBS. Type of data set: physicochemical. The protocol:
A volume of 500 μl PBS including 0.5 MBq radioligand (approximately 0.5 μg peptide) was combined with 500 μl octanol; the mixture was vortexed for 15 min and centrifuged for 2 min at 2000 rcf. From each phase, an aliquot (50 μl) was pipetted out and measured in a 2480 Wizard2 Automatic Gamma Counter (PerkinElmer, Vienna, Austria). Each measurement was repeated five times. LogD value was calculated as the average log ratio of the radioactivity in the organic fraction and the PBS fraction.

Data set [2] concerns M21 cells (integrin αvβ3 positive). In words: Internalization assay in M21 cells. The data set is classed as cell-based, human. The following applies: 90-min incubation, 37 °C. The protocol: One-milliliter aliquots in Eppendorf tubes were incubated at 37 °C for 1 h in triplicates, and [^68Ga]FSC(succ-RGD)3, [^68Ga]FSC(RGDfE)3, or [^68Ga]FSC(Mal-RGD)3 (approximately 1.5 × 10^6 cpm, 1.2 μg peptides) in PBS with 0.5 % BSA (150 μl, total series) or with 10 μM c(RGDyV) in PBS/0.5 % BSA (150 μl, nonspecific series) at 37 °C was added. After 90-min incubation was stopped by centrifugation, the medium was removed followed by washing (twice) with ice-cold Tris-buffered saline. After incubation in acid wash buffer (20 mM acetate buffer, pH 4.5) at 37 °C for 5 min (two times) and centrifugation, membrane bound activity was collected in plastic vials. Internalized radioligand fraction was collected after lysing cells by addition of 2 M NaOH. The internalized activity was expressed as percentage of total activity per milligram protein after spectrophotometric determination of protein (Bradford assay) in the NaOH fraction.

Data set [3] is described as follows: Ex vivo biodistribution in mice bearing M21/M21-L xenografts. The note with it: mouse, in vivo, iv. The procedure:
(§1) For the induction of tumor xenografts, female, athymic BALB/c nude mice (Charles River Laboratories) were injected subcutaneously with either 5 × 10^6 integrin αvβ3-positive M21 cells into the right hind limb and with 5 × 10^6 integrin αvβ3-negative M21-L cells (negative control) into the left hind limb of the same mouse. […] On the day of the experiment, [^68Ga]FSC(succ-RGD)3, [^68Ga]FSC(RGDfE)3, or [^68Ga]FSC(Mal-RGD)3 (∼0.5 MBq/mouse, ∼0.5 μg peptide, respectively) was intravenously injected in the lateral tail vein. Mice were euthanized by cervical dislocation at 1 and 2 h (only for [^68Ga]FSC(succ-RGD)3) after injection. Organs (spleen, pancreas, stomach, intestine, kidney, liver, heart, and lung), blood, muscle tissue, and tumors were dissected and weighed. Activity of the different samples was measured in the gamma counter. Results were expressed as percentage of injected dose per gram tissue (% ID/g).

The subject of data set [4] is integrin αvβ3-positive (M21) and integrin αvβ3-negative (M21-L) human melanoma tumors. The description is as above. The protocol:
as §1

Data set [5] in a line: MicroPET/CT imaging in U87MG tumor-bearing mice. The following applies: mouse, uptake value in tumor (ROI analysis), U87MG xenograft, PET, 90 min p.i., retro-orbital. The procedure:
To investigate the capabilities of binding to the integrin αvβ3 receptors in the different tumor xenograft models and, at the same time, compare the imaging properties of [^68Ga]FSC(succ-RGD)3 and [^68Ga]NODAGA-RGD, two U87MG tumor-bearing mice were administered retro-orbitally (r.o.) under general anesthesia with [^68Ga]FSC(succ-RGD)3 and [^68Ga]NODAGA-RGD each other (∼6 MBq/mouse, ∼5 μg peptide) at continued days. For the induction of tumor xenografts, female, athymic BALB/c nude mice (AnLab, Prague, Czech Republic) were injected subcutaneously with 5 × 10^6 U87MG cells into the right flank. The tumors were allowed to grow until they had reached a volume of 0.5 to 0.8 cm^3. Imaging experiments were conducted on an Albira microPET/SPECT/CT imaging system (Bruker Biospin Corporation, Woodbridge, CT, USA). MicroPET/CT images were acquired under general anesthesia (isoflurane/O2) and heating at 37 °C. PET data for each mouse was recorded via either dynamic imaging for 90 min (5-min PET scan per frame) or static scans (a 5-min PET scan (axial FOV 148 mm) was performed, followed by a 25-min CT scan (axial FOV 65 mm, 45 kVp, 400 μA, at 600 projections)) at 90 min p.i. […] The uptake values (%ID/g) in kidneys, heart, and tumor were analyzed by drawing standardized volumes of interest.

Data set [6] concerns integrin αvβ3-positive M21 tumor. The following applies: mouse, in vivo, iv.
Method: To compare the imaging properties of [^68Ga]FSC(succ-RGD)3, [^68Ga]FSC(RGDfE)3, and [^68Ga]FSC(Mal-RGD)3, microPET/CT imaging experiments were conducted on an Inveon microPET/CT scanner (Siemens Preclinical Solutions, Knoxville, USA). BALB/c nude mice bearing M21-positive tumor xenografts were administered with [^68Ga]FSC(succ-RGD)3 (or [^68Ga]FSC(RGDfE)3, [^68Ga]FSC(Mal-RGD)3, ∼5 MBq/mouse, ∼5 μg peptide) via intravenous (i.v.) injection. The body temperature of mice was maintained at 37 °C on the scanner bed and in the incubation chambers using heating pads. Dynamic 10-min duration PET scans were performed for 50 min while static PET scans (10 min) were performed at 1-h post-injection (p.i.), followed by a 25-min CT scan (spatial resolution, 113 μm; 80 kV, 500 mA). The mice remained under general anesthesia (isoflurane/O2) during the time between injection and imaging. […] Spherical isocontours were set at 50 % of the maximal pixel value to measure uptake values (Bq/ml) in kidneys, heart, and tumor.
The test system of data set [7] is integrin αvβ3-positive (M21) and integrin αvβ3-negative (M21-L) human melanoma tumors. The note with it: 1 h, cited from earlier work.
A further data set has as its target T1, integrin αvβ3 (Homo sapiens, UniProt P05106+P06756).
T1 construct: purchased Millipore-Chemicon, Temecula, CA, USA
In words: Binding affinity for immobilized integrin αvβ3, displacement of [^125I]c(RGDyV). The note with it: isolated integrin αvβ3, radioligand [^125I]c(RGDyV), three independent measurements. The procedure: In vitro binding affinities of cyclo(-Arg-Gly-Asp-DTyr-Val-) (c(RGDyV)) and the three FSC-RGD conjugates were determined by using isolated integrin αvβ3 (Millipore-Chemicon, Temecula, CA, USA) and I-125-labeled c(RGDyV) as radioligand. ([^125I]c(RGDyV) was produced as described in [18]). To integrin αvβ3, coated overnight at 4 °C onto 96-well plates (Nunc, Thermo Fisher Scientific, Vienna, Austria), [^125I]c(RGDyV) and the corresponding peptides in increasing concentrations from 0.001 to 100 nM were added. Plates were washed, and integrin bound activity was recovered with 2-M NaOH solution and counted in a gamma counter. OriginPro 8.5 software (Northampton, MA, USA) was used to calculate half maximal inhibitory concentration (IC50) values in three independent measurements.

Where [8] appears, read: M21 model, 1 h p.i., not statistically significant.

Structures are written as SMILES. Like-named read-outs stand apart in the source and are kept apart here.

T1 sequence (P06756 31-889 limits assumed): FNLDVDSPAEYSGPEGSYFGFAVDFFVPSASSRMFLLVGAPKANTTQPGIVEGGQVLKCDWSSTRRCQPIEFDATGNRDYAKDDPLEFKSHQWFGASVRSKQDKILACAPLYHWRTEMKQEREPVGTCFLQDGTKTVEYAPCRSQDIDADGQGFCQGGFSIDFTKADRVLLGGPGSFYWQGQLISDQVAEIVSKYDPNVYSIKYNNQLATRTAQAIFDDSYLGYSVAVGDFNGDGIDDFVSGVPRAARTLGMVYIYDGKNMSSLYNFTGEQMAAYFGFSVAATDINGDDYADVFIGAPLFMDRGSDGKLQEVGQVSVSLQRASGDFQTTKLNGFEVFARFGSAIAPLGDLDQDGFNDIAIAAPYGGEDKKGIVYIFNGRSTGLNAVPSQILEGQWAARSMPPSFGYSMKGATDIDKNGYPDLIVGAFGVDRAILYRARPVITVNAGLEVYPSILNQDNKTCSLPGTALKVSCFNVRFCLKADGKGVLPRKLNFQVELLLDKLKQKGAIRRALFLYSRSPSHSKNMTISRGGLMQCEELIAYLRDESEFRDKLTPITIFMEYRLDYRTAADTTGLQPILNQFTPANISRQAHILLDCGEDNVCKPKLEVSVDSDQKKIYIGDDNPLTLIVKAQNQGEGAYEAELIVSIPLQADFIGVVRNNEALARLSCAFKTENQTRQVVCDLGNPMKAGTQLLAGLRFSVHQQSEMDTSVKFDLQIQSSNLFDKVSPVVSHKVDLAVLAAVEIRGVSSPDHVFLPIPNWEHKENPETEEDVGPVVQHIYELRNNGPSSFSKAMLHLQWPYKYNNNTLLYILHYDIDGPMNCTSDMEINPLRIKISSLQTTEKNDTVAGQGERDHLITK
T1 sequence (P06756 891-1048 limits assumed): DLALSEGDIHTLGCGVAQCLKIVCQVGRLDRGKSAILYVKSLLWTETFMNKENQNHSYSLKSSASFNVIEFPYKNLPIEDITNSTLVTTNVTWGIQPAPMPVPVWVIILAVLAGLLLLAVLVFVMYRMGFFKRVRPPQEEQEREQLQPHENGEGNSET
T1 sequence (P05106 27-788): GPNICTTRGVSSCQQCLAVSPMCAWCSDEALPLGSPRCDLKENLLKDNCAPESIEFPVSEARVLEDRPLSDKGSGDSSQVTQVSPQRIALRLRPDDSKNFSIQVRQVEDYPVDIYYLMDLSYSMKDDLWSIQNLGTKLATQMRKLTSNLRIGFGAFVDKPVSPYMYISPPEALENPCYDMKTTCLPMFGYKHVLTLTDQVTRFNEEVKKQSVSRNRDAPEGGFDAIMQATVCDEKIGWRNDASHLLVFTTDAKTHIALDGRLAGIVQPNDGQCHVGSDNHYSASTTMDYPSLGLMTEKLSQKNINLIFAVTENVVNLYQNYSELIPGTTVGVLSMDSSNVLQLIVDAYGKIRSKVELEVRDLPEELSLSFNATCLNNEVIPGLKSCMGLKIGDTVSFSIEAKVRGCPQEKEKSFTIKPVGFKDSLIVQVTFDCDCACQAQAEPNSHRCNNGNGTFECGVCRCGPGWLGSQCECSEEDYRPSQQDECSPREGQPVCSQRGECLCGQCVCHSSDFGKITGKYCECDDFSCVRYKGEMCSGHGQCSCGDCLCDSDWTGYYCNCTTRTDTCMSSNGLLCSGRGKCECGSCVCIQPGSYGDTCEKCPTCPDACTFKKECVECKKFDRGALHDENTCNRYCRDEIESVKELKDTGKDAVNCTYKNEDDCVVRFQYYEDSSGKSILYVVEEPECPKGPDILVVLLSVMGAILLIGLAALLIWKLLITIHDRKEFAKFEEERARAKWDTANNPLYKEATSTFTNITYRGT

For orientation: logD means lipophilicity at a set pH, counting ionised and neutral species. By tissue uptake is commonly meant the percentage of the injected dose found per gram of tissue. Regarding `C/C1=C/C(=O)N(O)CCC[C@H](NC(=O)CC[C@@H]2NC(=O)[C@@H](Cc3ccccc3)NC(=O)[C@H](CC(=O)O)NC(=O)CNC(=O)[C@H](CCCNC(=N)N)NC2=O)C(=O)OCC/C(C)=C\C(=O)N(O)CCC[C@H](NC(=O)CC[C@@H]2NC(=O)[C@@H](Cc3ccccc3)NC(=O)[C@H](CC(=O)O)NC(=O)CNC(=O)[C@H](CCCNC(=N)N)NC2=O)C(=O)OCC/C(C)=C\C(=O)N(O)CCC[C@H](NC(=O)CC[C@@H]2NC(=O)[C@@H](Cc3ccccc3)NC(=O)[C@H](CC(=O)O)NC(=O)CNC(=O)[C@H](CCCNC(=N)N)NC2=O)C(=O)OCC1` [[^68Ga]FSC(RGDfE)3, metal not drawn], the logD in data set [1] is -3.8 ± 0.2. Besides, the “internalized activity, % of total activity per milligram protein” value in data set [2] turned out to be 5.3 ± 0.7 % cpm/mg. The tissue uptake at 1 h in data set [3] (Blood uptake) is 0.4 ± 0.08 %ID/g; in data set [3] (Heart uptake), 1.52 ± 0.13 %ID/g; in data set [3] (Intestine uptake), 3.21 ± 0.48 %ID/g; in data set [3] (Kidneys uptake), 11.5 ± 1.87 %ID/g; in data set [3] (Liver uptake) it was 12.1 ± 1.34 %ID/g; in data set [3] (Lung uptake) it was 2.48 ± 1.07 %ID/g. Besides, the tissue uptake at 1 h was 1.1 ± 0.3 %ID/g in data set [3] (M21-L tumor uptake); 5.49 ± 0.94 %ID/g in data set [3] (M21 tumor uptake); 0.94 ± 0.09 %ID/g in data set [3] (Muscle uptake); 1.04 ± 0.12 %ID/g in data set [3] (Pancreas uptake); 9.13 ± 0.27 %ID/g in data set [3] (Spleen uptake); 4.76 ± 0.25 %ID/g in data set [3] (Stomach uptake). The compound further showed an M21-L tumor uptake in data set [4] (mouse, in vivo, iv, 1 h) of 1.25 ± 0.06 % ID/g.
Consider `C/C1=C/C(=O)N(O)CCC[C@H](NC(=O)CCC(=O)NCCCC[C@@H]2NC(=O)[C@@H](Cc3ccccc3)NC(=O)[C@H](CC(=O)O)NC(=O)CNC(=O)[C@H](CCCNC(=N)N)NC2=O)C(=O)OCC/C(C)=C\C(=O)N(O)CCC[C@H](NC(=O)CCC(=O)NCCCC[C@@H]2NC(=O)[C@@H](Cc3ccccc3)NC(=O)[C@H](CC(=O)O)NC(=O)CNC(=O)[C@H](CCCNC(=N)N)NC2=O)C(=O)OCC/C(C)=C\C(=O)N(O)CCC[C@H](NC(=O)CCC(=O)NCCCC[C@@H]2NC(=O)[C@@H](Cc3ccccc3)NC(=O)[C@H](CC(=O)O)NC(=O)CNC(=O)[C@H](CCCNC(=N)N)NC2=O)C(=O)OCC1` [[^68Ga]FSC(succ-RGD)3, metal not drawn], for which, in data set [1], the log distribution coefficient (logD) is -3.6 ± 0.1. The “internalized activity, % of total activity per milligram protein” value in data set [2] worked out at 5.7 ± 0.6 % cpm/mg. In addition, the tissue uptake at 1 h in data set [3] (Heart uptake) turned out to be 1.21 ± 0.28 %ID/g; in data set [3] (Intestine uptake), 2.41 ± 0.8 %ID/g; in data set [3] (Kidneys uptake), 8.12 ± 1.09 %ID/g; in data set [3] (Liver uptake), 3.54 ± 0.63 %ID/g; in data set [3] (Lung uptake), 2.42 ± 0.22 %ID/g; in data set [3] (M21-L tumor uptake) it was 1.25 ± 0.06 %ID/g. The tissue uptake at 1 h is 3.69 ± 0.94 %ID/g in data set [3] (M21 tumor uptake), 0.52 ± 0.19 %ID/g in data set [3] (Muscle uptake), 0.61 ± 0.13 %ID/g in data set [3] (Pancreas uptake) and 2.02 ± 1.35 %ID/g in data set [3] (Stomach uptake). For the same compound, the M21/kidneys ratio in data set [4] (1 h p.i.) was found to be 0.5 ± 0.1; in data set [4] (2 h p.i.), 0.6 ± 0.1. In data set [4] (mouse, in vivo, iv, 1 h), this compound showed a Blood uptake of 0.63 ± 0.26 % ID/g. Also, the M21-L tumor uptake in data set [4] (mouse, in vivo, iv, 1 h) turned out to be 1.10 ± 0.30 % ID/g. This compound also returned a Spleen uptake in data set [4] (mouse, in vivo, iv, 1 h) of 3.27 ± 0.64 % ID/g. The compound also came in with a tissue uptake at […] in data set [5] of 3.8 %ID/g. For the same compound, in data set [6], the “earliest visualization of the receptor-positive tumor in dynamic PET” value was determined as 10 min p.i.
With `N=C(N)NCCC[C@@H]1NC(=O)[C@H](CCCCNC(=O)CCC(C(=O)O)N2CCN(CC(=O)O)CCN(CC(=O)O)CC2)NC(=O)[C@@H](Cc2ccccc2)NC(=O)[C@H](CC(=O)O)NC(=O)CNC1=O` (stereo partly drawn) [[^68Ga]NODAGA-RGD, metal not drawn], in data set [4] (setting [8]), the “higher tumor to blood ratio versus [^68Ga]FSC(succ-RGD)3” value was 1.8 fold and the “higher tumor to kidney ratio versus [^68Ga]FSC(succ-RGD)3” value came out at 2 fold. In addition, the M21/kidneys ratio in data set [7] (same murine model, calculated based on the literature data ref 14) is given as 1.0 ± 0.4. In addition, the M21 tumor uptake in data set [7] (mouse, in vivo) was 1.3 %ID/g.
What is called IC50 is the concentration at which inhibition is half-maximal. Read a high IC50 as lower potency. `CC(C)[C@@H]1NC(=O)[C@@H](Cc2ccc(O)cc2)NC(=O)[C@H](CC(=O)O)NC(=O)CNC(=O)[C@H](CCCNC(=N)N)NC1=O` [c(RGDyV), cyclo(-Arg-Gly-Asp-DTyr-Val-)]: the 50% inhibitory concentration (IC50) on integrin αvβ3 was found to be 6.2 ± 1.6 nM.
